Experimental data published in patent publication US20090175866A1, “TREATMENT OF B-CELL MALIGNANCIES” (priority 2004, published 2009).

Columns and labels:
UTMC2 cells = assay: Viability of stimulated UTMC2 myeloma cells (MTT); format: cell-based, human
Description: (§1) FIG. 2 is a graph showing the viability of human myeloma cell lines in the presence of PRO-001. Viability is reported as the ratio between the optical density (OD) in the presence of FGF±inhibitor and the OD in the absence of FGF.
FIG. 4 is a graph showing viability of UTMC2 cells treated with FGF, IL6 or IGF-1. The dark bars represent stimulated cells treated with a control antibody; the dotted bar represents stimulated cells treated with 5 μg/ml PRO-001; the square-filled bar represents stimulated cells treated with 100 nM PD173074.
(§2) Non-transformed rat chondrocyte cell line expressing PGFR3 in an inducible manner (RCJ-FGFR3) has been described previously (Rauchenberger R. et al. J. Biol. Chem. 2003; 278:38194-205). Cells were maintained in α-Minimum Essential Media supplemented with 15% fetal calf serum (FCS), 2 mM L-Glutamine, 100 U/ml penicillin, 100 μg/ml streptomycin, 600 μg/ml G418 (Gibco BRL, Ontario, Canada), 2 μg/ml Tetracyclin (Sigma, Ontario, Canada), and 50 μg/ml HygromycinB (Gibco BRL). FGFR3 expression was induced by removal of tetracyclin and serum starvation. […]
(§3) Cell viability was assessed by 3-(4,5-dimethylthiazol)-2,5-diphenyl tetrazolium (MTT) or (2,3-bis(2-methoxy-4-nitro-5-sulphophenyl)-5-[(phenylamino) carbonyl]-2H-tetrazolium hydroxide (XTT) dye absorbance where indicated. Cells were seeded in 96-well plates at a density of 20,000 (FDCP-1 cells), 5,000 (B9 cells) or 25,000 cells (MM cell lines) per well in culture medium. Cells were incubated in the absence or presence of one of the following cytokines: 10 ng/ml FGF9 and 5 μg/ml heparin, 1% murine IL-6, 50 ng/ml IGF-1 or 50 ng/ml human IL-6 where indicated and increasing concentrations of PRO-001, control antibody (purified human Fab) or 100 nM PD173074. […]
PRO-001 was tested against t (4; 14) myeloma cell lines expressing FGFR3: UTMC2 cells—expressing WT FGFR3, and H929 cells—expressing WT FGFR3 but harboring a downstream activating mutation of N-Ras. Cell growth in the presence of FGF and PRO-001 (5 μg/ml), control antibody (isotype) or 100 nM PD173074 was determined by MTT assay. […]

H929 cells = assay: Viability of H929 myeloma cells (MTT); format: cell-based, human; settings: 5 μg/ml
From the text: as §1
as §2, with “BRL).” for “BRL). FGFR3 expression was induced by removal of tetracyclin and serum starvation.”
as §3

FGFR2 = target: T1, FGFR2 (Homo sapiens, UniProt P21802); assay: FGF-stimulated proliferation of FDCP-FGFR2 cells (XTT); format: cell-based; settings: up to 10 fold higher concentrations than the FDCP-FGFR3 IC50
T1 construct: was transfected with full length FGFR1 (FDCP-FGFR1), FGFR2 (FDCP-FGFR2), FGFR3 (FDCP-FGFR3); expressed in transfected cells; host or cells: FDCP-1 mouse myeloid progenitor cell line
T1 sequence (P21802 22-821, species assumed): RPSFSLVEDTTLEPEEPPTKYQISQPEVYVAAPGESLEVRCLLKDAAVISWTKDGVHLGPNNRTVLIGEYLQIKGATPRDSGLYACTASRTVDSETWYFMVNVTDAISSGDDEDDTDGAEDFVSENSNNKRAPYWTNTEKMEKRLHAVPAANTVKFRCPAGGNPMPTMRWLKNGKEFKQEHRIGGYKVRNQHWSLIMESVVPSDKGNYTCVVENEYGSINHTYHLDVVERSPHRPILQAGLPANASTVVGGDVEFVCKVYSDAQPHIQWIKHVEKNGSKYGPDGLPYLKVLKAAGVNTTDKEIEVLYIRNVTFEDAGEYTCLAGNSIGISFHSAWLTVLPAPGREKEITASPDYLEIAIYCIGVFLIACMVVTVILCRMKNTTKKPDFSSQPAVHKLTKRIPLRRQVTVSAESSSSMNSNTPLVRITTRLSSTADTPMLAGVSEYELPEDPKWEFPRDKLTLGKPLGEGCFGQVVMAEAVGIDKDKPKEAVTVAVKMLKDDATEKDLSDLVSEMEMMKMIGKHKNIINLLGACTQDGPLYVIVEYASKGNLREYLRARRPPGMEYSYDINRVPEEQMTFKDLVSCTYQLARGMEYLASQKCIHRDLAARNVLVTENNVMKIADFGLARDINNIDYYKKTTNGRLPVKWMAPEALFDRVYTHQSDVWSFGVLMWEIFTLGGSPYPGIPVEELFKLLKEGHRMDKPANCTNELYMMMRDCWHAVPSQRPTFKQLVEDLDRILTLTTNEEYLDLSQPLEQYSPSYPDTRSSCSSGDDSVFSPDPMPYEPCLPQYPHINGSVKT
From the text: FIG. 1D is a graph showing proliferation of FGFR expressing FDCP cells in the presence of increasing concentrations of PRO-001 as determined by XTT analysis. Data are the average of duplicate cultures. The X axis represents concentration of PRO-001 Fab. The Y axis represents % inhibition.
Non-transformed rat chondrocyte cell line expressing PGFR3 in an inducible manner (RCJ-FGFR3) has been described previously (Rauchenberger R. et al. J. Biol. Chem. 2003; 278:38194-205). […]
as §3

B1: PRO-001: human anti-FGFR3 Fab from HuCAL library; VH-CDR3 SEQ ID NO:1, VL-CDR3 SEQ ID NO:10; VH SEQ ID NO:19, VL SEQ ID NO:28 (antibody, V domains shown)
VH: QVQLQQSGPGLVKPSQTLSLTCAISGDSVSSNSAAWNWIRQSPGRGLEWLGRTYYRSKWYNDYAVSVKSRITINPDTSKNQFSLQLNSVTPEDTAVYYCARSYYPDFDYWGQGTLVTVSS
VL: DIELTQPPSVSVAPGQTARISCSGDALGDKYASWYQQKPGQAPVLVIYDDSDRPSGIPERFSGSNSGNTATLTISGTQAEDEADYYCQSYDGPDLWVFGGGTKLTVLGQ
UTMC2 cells; 5 μg/ml PRO-001
  Viability of UTMC2 cells stimulated with IGF-1: remain sensitive
  Viability of UTMC2 cells stimulated with IL6: remain sensitive
UTMC2 cells; 5 μg/ml, MTT
  Proliferation of FGF-stimulated UTMC2 cells: significantly inhibited
H929 cells
  Cell growth of H929 cells in the presence of FGF: resistant
FGFR2
  Proliferation of FDCP-1 cells expressing FGFR2: unaffected
